Where a chain is given by its changes, count along the chain named.
B1: S. cerevisiae Atg23 FL (recombinant, purified) (natural protein, UniProt Q06671 1-453, looked up)
chain: MELNQVLEKKEQILQYLGTLVGLHEKALSDVNSASQVTSIRKDITICLNDLCRINDLLVSHDGLLKREIGSLLRDKQELLELNEREQLLWKERKSWHIKQETDAAPADYVIDKDAIITISSHHRTSLNKYIESVGAENTILSNTDDSDAMIEEVQNAESSADQMIRNYKLLQLSHKQAKSEIIRLETLLRDFKKDNKFIEEELKRQSGRIRSEMGNIDFHLSKIEESKHQLMKRIGFESPLTQEKSLSEKIFNLRLSSADEDYNERQTINMKNFVHMKDLIELKIEDLQEQLMRNKNESSTVLTQRELWLDCQKKVGDLESKLITKLRSSSNSKIPPNEMSEMINSTIQYLNNLLDSSDEKLTTTLISNERDVLSKACEELHSESTTAQDGSSALPSKPIDIHKSHKGSNASSNLKQPSTPSFLVASKSPPKIGISESVVNANKNDAISKKVE
B2: Atg23 M5 (recombinant, purified) (natural protein, S. cerevisiae, UniProt Q06671 1-453, looked up)
chain: B1 chain with K66E, R67E, R74E, R85E, K296E
B3: Atg23 M3 (recombinant, purified) (natural protein, S. cerevisiae, UniProt Q06671 1-453, looked up)
chain: B1 chain with K66E, R67E
B4: Atg23 M4 (recombinant, purified) (natural protein, S. cerevisiae, UniProt Q06671 1-453, looked up)
chain: B1 chain with K66E, R67E, K296E

Molecular target: the molecule itself
Assay: AUC

Stoichiometry N, 2:
B1
B2
B3
B4
